Paper PMC9681084, “MYB44-ENAP1/2 restricts HDT4 to regulate drought tolerance in Arabidopsis” (PLOS Genetics, 2022)

Target: T1, GST-MYB44 (Arabidopsis, UniProt Q9FDW1 1-305)
T1 construct: MYB44, Arabidopsis; the CDS ligated to pGEX-KG; source: E. coli, purified (Glutathione Sepharose resin)
Assay: pull-down; GST-MYB44 as bait, GST as control; purified proteins from E. coli incubated overnight at 4°C, washed four times, western blot
Conditions: both partners purified

T1 sequence (Q9FDW1 whole entry): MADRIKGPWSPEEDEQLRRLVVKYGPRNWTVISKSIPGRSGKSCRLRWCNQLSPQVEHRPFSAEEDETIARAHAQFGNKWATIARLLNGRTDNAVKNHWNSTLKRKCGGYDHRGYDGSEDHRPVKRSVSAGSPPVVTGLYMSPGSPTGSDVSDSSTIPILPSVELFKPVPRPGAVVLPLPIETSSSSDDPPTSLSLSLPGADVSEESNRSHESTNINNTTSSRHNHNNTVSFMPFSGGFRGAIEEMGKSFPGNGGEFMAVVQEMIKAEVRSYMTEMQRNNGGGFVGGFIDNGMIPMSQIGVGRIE

Row | binding result | Binder
1 | binds | His-HDT4 (enzyme, Arabidopsis, UniProt Q9M4T3 1-203, looked up, HDT4, histone deacetylase of the HD2 family, Arabidopsis; the CDS ligated to pET28a; source: E. coli, purified (Ni-NTA agarose resin)) MEFWGIEIKPGKPFKVIQKDGFMVHASQVTLGDVEKVKKDETFAVYVKIGDDENGFMIGNLSQKFPQFSIDLYLGHEFEISHNSTSSVYLIGYRTFDAFDELDEEIDSDSELDEYMEQQIAALPQNEINPEEDDESDSDEMGLDEDDDSSDEEDVEAEAPLKVAPPSKKMPNGAFEIAKGGKKNKSSGGKKRCPFPCGPSCKK
2 | binds | MBP-ENAP1 (natural protein, Arabidopsis, UniProt Q8VZI9 1-249, looked up, ENAP1, Arabidopsis, AT3G11100; the CDS ligated to pVP13 (His tag removed); source: E. coli, purified (Amylose resin)) METTPETQSKTHRLPAGREDWWSEDATATLIEAWGDRYVNLNRGNLRQNDWKEVADAVNSSHGNGRPKTDVQCKNRIDTLKKKYKTEKAKPLSNWCFFDRLDFLIGPVMKKSSGAVVKSALMNPNLNPTGSKSTGSSLDDDDDDDDDDEEDDDDAGDWGFVVRKHRKVEDVDSSEGSAFRELARSILKLGEAFERIEGKKQQMMIELEKQRMEVAKELELQRMNMLMEMQLELEKSKLGKRRAASGKKL
